# Test results: PMC1868780, “Short RNA Guides Cleavage by Eukaryotic RNase III”
# T1: Rnt1p (yeast RNase III) (Saccharomyces cerevisiae, UniProt Q02555 1-471)
# T1 sequence: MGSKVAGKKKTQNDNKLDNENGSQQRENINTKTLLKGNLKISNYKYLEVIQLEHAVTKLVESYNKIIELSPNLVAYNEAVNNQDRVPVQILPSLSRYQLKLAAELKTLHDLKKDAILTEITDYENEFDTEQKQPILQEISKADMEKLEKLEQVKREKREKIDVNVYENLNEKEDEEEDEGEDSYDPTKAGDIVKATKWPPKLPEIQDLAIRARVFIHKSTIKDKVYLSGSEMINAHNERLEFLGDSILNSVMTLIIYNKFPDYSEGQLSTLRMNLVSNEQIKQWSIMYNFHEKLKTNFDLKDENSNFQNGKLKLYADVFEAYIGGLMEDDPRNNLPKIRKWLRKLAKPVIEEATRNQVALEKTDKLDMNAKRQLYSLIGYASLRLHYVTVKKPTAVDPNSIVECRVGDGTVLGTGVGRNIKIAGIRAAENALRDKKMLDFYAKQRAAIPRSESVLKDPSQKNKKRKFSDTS
# B1: 3'-Branch (structured_RNA)
# RNA: GCUUGAAGAGGAUGAGUCCAUCCCCAAAACAUUAGCUUGAAAAAGCUAAUGUUUUGGAAUCUUCAAGAUUAUGG
# Target: T1, Rnt1p (yeast RNase III)
# Experiment: EMSA; apparent K'd; Protein EMSA as in cited ref 12 (buffer not given): 3 fmol 5'-labeled RNA, Rnt1p 0.25-6 uM; trans reactions with 2 pmol cold target
# Details: protein: recombinant; chain copies: 2; label: 5'-32P; hairpin
binder,measurement,value
B1,Kd,750 nM
